Our source for the Kd values is the Immune Epitope Database (IEDB).

The target of test [1] is HLA-B*57:01. The experiment in a line: IEDB peptide-MHC binding, purified MHC/competitive/fluorescence; filed as Kd, often an IC50 or EC50 that approximates it; ≥ and ≤ were set here for values at or beyond the usual limits of such assays.
Test [2] addresses HLA-A*26:01. Described as above.
Test [3] has as its target HLA-B*27:03. The test is described as above.
Test [4] has as its target HLA-A*02:16. Described as above.
Test [5] has as its target HLA-A*02:19. Described as above.
Test [6] deals with HLA-B*39:01. The test is described as above.
For test [7], the target named is HLA-B*46:01. The description is as above.
The target in test [8] is HLA-B*18:01. Described as above.
The target of test [9] is HLA-A*02:12. The description is as above.
Test [10] deals with HLA-A*24:03. Described as above.
Test [11] addresses HLA-A*02:11. The description is as above.
Test [12] concerns the target HLA-A*03:01. The test is described as above.
The target in test [13] is HLA-A*02:01. The description is as above.
The target in test [14] is HLA-A*02:03. Described as above.
For test [15], the target named is HLA-B*07:02. The description is as above. Conditions: source organism: Mycobacterium tuberculosis variant bovis BCG str. Pasteur 1173P2.
Test [16] addresses HLA-A*02:06. The description is as above.
For test [17], the target named is HLA-B*15:01. Described as above. Conditions: source organism: Vibrio cholerae 2740-80.
Test [18] deals with HLA-B*51:01. Described as above. Conditions: source organism: Vibrio cholerae 2740-80.
Test [19] addresses HLA-A*69:01. Described as above. Conditions: source organism: Human immunodeficiency virus type 1 (ELI ISOLATE).
The target of test [20] is HLA-A*31:01. Described as above.
Test [21] addresses HLA-A*11:01. The experiment in a line: IEDB peptide-MHC binding, purified MHC/direct/fluorescence; filed as Kd, often an IC50 or EC50 that approximates it; ≥ and ≤ were set here for values at or beyond the usual limits of such assays.
Test [22] has as its target HLA-B*57:01. The description is as above. The note with it: source organism: Escherichia coli O157:H7 str. EC869.
Test [23] deals with HLA-B*15:01. The test is described as above. Conditions: source organism: Escherichia coli O157:H7 str. EC869.
For test [24], the target named is HLA-B*51:01. The description is as above. The note with it: source organism: Escherichia coli O157:H7 str. EC869.
Test [25] addresses HLA-A*26:01. Described as above. Conditions: source organism: Escherichia coli O157:H7 str. EC869.
Test [26] has as its target HLA-B*07:02. Described as above. Conditions: source organism: Escherichia coli O157:H7 str. EC869.
Test [27] concerns the target HLA-B*27:03. Described as above. Conditions: source organism: Escherichia coli O157:H7 str. EC869.
In test [28] the target is HLA-A*02:16. Described as above. Conditions: source organism: Escherichia coli O157:H7 str. EC869.
The target in test [29] is HLA-A*02:19. The description is as above. The note with it: source organism: Escherichia coli O157:H7 str. EC869.
For test [30], the target named is HLA-B*35:01. The test is described as above. Conditions: source organism: Escherichia coli O157:H7 str. EC869.
The target of test [31] is HLA-B*39:01. The description is as above. Conditions: source organism: Escherichia coli O157:H7 str. EC869.
The target of test [32] is HLA-B*46:01. The description is as above. The note with it: source organism: Escherichia coli O157:H7 str. EC869.
The target of test [33] is HLA-A*02:12. The description is as above. Conditions: source organism: Escherichia coli O157:H7 str. EC869.
In test [34] the target is HLA-A*02:11. The description is as above. The note with it: source organism: Escherichia coli O157:H7 str. EC869.
For test [35], the target named is HLA-A*68:02. Described as above. Conditions: source organism: Escherichia coli O157:H7 str. EC869.
In test [36] the target is HLA-A*03:01. The description is as above. The note with it: source organism: Escherichia coli O157:H7 str. EC869.
Test [37] addresses HLA-A*02:01. The description is as above. Conditions: source organism: Escherichia coli O157:H7 str. EC869.
Test [38] addresses HLA-A*69:01. The test is described as above. The note with it: source organism: Escherichia coli O157:H7 str. EC869.
For test [39], the target named is HLA-A*02:03. The test is described as above. Conditions: source organism: Escherichia coli O157:H7 str. EC869.
The mark [40] stands for this setting: source organism: Giardia lamblia ATCC 50803.
Where [41] appears, read: source organism: Mycobacterium tuberculosis variant bovis BCG str. Pasteur 1173P2.
Setting [42] is: source organism: Escherichia coli ATCC 8739.
Where [43] appears, read: source organism: Vibrio cholerae 2740-80.
The mark [44] stands for this setting: source organism: Human immunodeficiency virus type 1 (ELI ISOLATE).

As for MARPADASM, the Kd – broadly, the equilibrium constant for the complex coming apart – in test [1] (setting [40]) is 0.121 µM; in test [2] (setting [40]) it was at least 20 µM; in test [3] (setting [40]), at least 20 µM; in [4] (setting [40]), at least 20 µM; in [5] (setting [40]), at least 20 µM; in test [6] (setting [40]), at least 20 µM. Further, the Kd in test [7] (setting [40]) was 2.2 µM; in test [8] (setting [40]), at least 20 µM; in test [9] (setting [40]), at least 20 µM; in [10] (setting [40]) it was at least 20 µM; in test [11] (setting [40]), at least 20 µM; in test [12] (setting [40]), at least 20 µM. Moreover, the Kd in [13] (setting [40]) and in test [14] (setting [40]) was at least 20 µM throughout.

In the case of SLYEKSGSV, the Kd is at least 20 µM in test [15]; 0.13 µM in test [5] (setting [41]); 0.0341 µM in test [9] (setting [41]); 0.0011 µM in test [11] (setting [41]); at most 0.001 µM in [14] (setting [41]).

Regarding GLLDWGMQQ, the Kd in test [16] (setting [42]) came to 1.55 µM; in test [13] (setting [42]), 0.119 µM.

On to IFIRTIYYH, for which the Kd in test [1] (setting [43]), in test [17], in [18], in [2] (setting [43]), in test [3] (setting [43]) and in [4] (setting [43]) was at least 20 µM each time. For the same sequence, the Kd in test [5] (setting [43]), in [6] (setting [43]), in [7] (setting [43]), in test [8] (setting [43]), in test [9] (setting [43]) and in [10] (setting [43]) was at least 20 µM throughout. The Kd in test [11] (setting [43]), in test [12] (setting [43]), in [13] (setting [43]) and in test [14] (setting [43]) was at least 20 µM each time.

Regarding SLGQHIYET, the Kd in test [4] (setting [44]) was 0.006 µM; in test [16] (setting [44]), 0.011 µM; in [5] (setting [44]), 0.084 µM; in test [9] (setting [44]), 0.0225 µM; in test [13] (setting [44]), 0.012 µM; in [19], at least 20 µM. The same sequence came in with a Kd in test [14] (setting [44]) of 0.0065 µM.

SYYCAGLKK: the Kd in test [20] (source organism: dengue virus type 1) came out at 1.96 µM; in test [21] (source organism: Dengue virus 1 Singapore/S275/1990), 0.0801 µM.

With LTYRHKVVK, the Kd was 0.0239 µM in [20] (source organism: Japanese encephalitis virus) and 0.0298 µM in [21] (source organism: West Nile virus).

As for YGSWFGLIY, the Kd in test [22] is at least 20 µM; in [23], 0.18 µM; in test [24], at least 20 µM; in test [25] it was at least 20 µM; in test [26], at least 20 µM; in test [27], at least 20 µM. The Kd in test [28] is at least 20 µM; in [29] it was at least 20 µM; in test [30], 0.006 µM; in test [31], at least 20 µM; in test [32], at least 20 µM; in test [33], at least 20 µM. For the same sequence, the Kd in test [34], in [35], in [36], in test [37], in test [38] and in [39] was at least 20 µM each time.
